# Measured values published in the supplement of paper PMC10724198.
# ± gives the standard deviation of the averaged measurements.
# Test system: Saccharomyces cerevisiae
# Experiment: protein stability index of tFT-peptide fusion (C-terminal peptide) (PSI (0-1 scale)); higher = more stable (slower turnover)
# Settings: genetic background: wild type; temperature: 30 C
# Protocol: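 Multiplexed protein stability (MPS) profiling in S. cerevisiae. Random 12-aa peptides (tFT-X12 library) are fused to the C-terminus of a sfGFP-mCherry tandem fluorescent timer, after mCherry and a GGGS linker. Cells are FACS-sorted into 8 mCherry/sfGFP bins and deep-sequenced. The protein stability index (PSI) is the read-weighted bin average, scaled from 0 (unstable) to 1 (stable). Only peptides with >10 reads are reported; cells were grown at 30 °C in SC-His with glucose.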
# 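Further: PSI is a weighted mean of sequencing reads over stability bins, variants kept only with over 10 reads, mCherry proximal and sfGFP distal, peptide attached via GGGS linker.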
row,Sequence,protein stability index
1,KKNYKNIEKKET,0.658 ± 0.11
2,SLFSLLRSPSPF,0.806 ± 0.18
3,SFLSLLLLSSSR,0.7 ± 0.012
4,PPSLGPHSTSCD,0.715 ± 0.071
5,SPPPPHPPPPAD,0.651 ± 0.098
6,LSGRGVGSEGME,0.721 ± 0.14
7,IRSRSVTKYGWS,0.606 ± 0.025
8,GGRGRRWAGPRC,0.702 ± 0.039
9,WGWGGGRGGMGG,0.716 ± 0.022
10,RRVRRRRTGGAW,0.669 ± 0.005
11,ANYGSCSLGYVL,0.74 ± 0.062
12,PPPLSPFTTPPS,0.7493 ± 0.00077
13,KKTKKKKQTKRK,0.677 ± 0.038
14,KKQKKEKKKSHK,0.757 ± 0.068
15,GHWRQCSVAEGA,0.643 ± 0.0024
16,LFFFPPVPISSV,0.601 ± 0.0008
17,SPPLQFLPYPFF,0.685 ± 0.09
18,HRTSVRIPIPPI,0.683 ± 0.012
19,KPQQKQEKLTNP,0.736 ± 0.043
20,QKKQKIKYRSKN,0.714 ± 0.053
21,ASPLPPPSHLSL,0.741 ± 0.021
22,FLIPPPFALPSL,0.717 ± 0.08
23,PVDGGAGPEVKG,0.641 ± 0.1
24,SPRLPPPLFLPL,0.638 ± 0.02
25,PPPHHPIMPAKQ,0.63 ± 0.027

row,Sequence,protein stability index
1,GVGGRVRDALGM,0.68 ± 0.066
2,ALFFCLFGRVMW,0.488 ± 0.023
3,RLGALNHPLAAP,0.7183 ± 0.0057
4,GPCFKSQPKSPI,0.6807 ± 0.0024
5,DVYMWVVPNFTD,0.729 ± 0.037
6,RFWFWWVVRDGS,0.617 ± 0.08
7,VNAVLFWPRQLS,0.619 ± 0.013
8,IFGVSRTGIRCT,0.56 ± 0.011
9,NKMLCTTEGVAA,0.644 ± 0.038
10,VGCSDFSAIVLD,0.713 ± 0.069
11,PPPPPLPPPPPP,0.593 ± 0.021
12,ELNGLSLVRKKK,0.662 ± 0.021
13,RAMLWGPCYRGI,0.656 ± 0.021
14,VPRPPGPPPGPV,0.667 ± 0.053
15,WCRGGGWPVTGL,0.7 ± 0.042
16,PQIVRSFLLFPP,0.69 ± 0.0076
17,ADSWACSWLLFR,0.613 ± 0.065
18,HGRSGGGKGAER,0.674 ± 0.038
19,SPTNNTSTQSQT,0.686 ± 0.012
20,LVFRPVPVIFGL,0.635 ± 0.017
21,PPGLPLSPCPPP,0.685 ± 0.061
22,HEKTGNNHKRGH,0.628 ± 0.19
23,PDCVRVSGLGLS,0.665 ± 0.045
24,SGVVIDDSLKEE,0.683 ± 0.0092
25,LGFYGSYGRWWV,0.779 ± 0.085

row,Sequence,protein stability index
1,PPPHASLSHCHS,0.687 ± 0.11
2,FSFARFFSWSFS,0.694 ± 0.13
3,DVHGETRGYGIQ,0.665 ± 0.019
4,NGSAYEGRDYAN,0.626 ± 0.02
5,SPYLRISGLVFC,0.557 ± 0.045
6,FVLRFRGMRPSN,0.673 ± 0.019
7,PTRPPRPRAGPR,0.742 ± 0.0077
8,KRNCVVLLPMDR,0.682 ± 0.23
9,LVLYPFPPLHST,0.6749 ± 0.0053
10,PFPPPSTPASLY,0.772 ± 0.11
11,LKQNRIKCPWTL,0.728 ± 0.017
12,VYQLTKNERVIK,0.643 ± 0.1
13,SPLFLVIRLPST,0.62 ± 0.055
14,PLLRRLFPLSSR,0.608 ± 0.052
15,RSGWRLLHLTTL,0.613 ± 0.013
16,GAHATVPSMVTL,0.698 ± 0.092
17,LSLSTTLSADLY,0.678 ± 0.021
18,PRPPPLPPQTSS,0.73 ± 0.1
19,PIELTQRASVPP,0.6592 ± 0.0052
20,GGGGGGGGGGGV,0.709 ± 0.053
21,LAVLRFHLRRHL,0.668 ± 0.065
22,HSSSASPPISSF,0.657 ± 0.041
23,EGDGQGWGGQGG,0.702 ± 0.03
24,GVCTGSFVFYLT,0.686 ± 0.016
25,PPPPPPPLRFIF,0.618 ± 0.035

row,Sequence,protein stability index
1,CTFSGLLEMAGR,0.7253 ± 0.0024
2,KMIDNKQKSVAV,0.675 ± 0.012
3,CMCFFMGGWWCV,0.608 ± 0.0067
4,ALAPCLPESIGN,0.676 ± 0.057
5,AGPDGDWREPRP,0.57 ± 0.069
6,GLSGSPIPFIRL,0.731 ± 0.021
7,TLCTSPWGVVAV,0.511 ± 0.024
8,KKKKKQRGKKQK,0.722 ± 0.014
9,PPNGAATTQDRL,0.699 ± 0.011
10,KFHPRPPSRVLR,0.6542 ± 0.0022
11,RRDELINVVKRT,0.717 ± 0.072
12,APAPHSPNFPFS,0.699 ± 0.008
13,GKSGVTGAGEKR,0.681 ± 0.06
14,TNNTKRDKKRIQ,0.703 ± 0.16
15,GGKARKRKDKRA,0.645 ± 0.1
16,PPRPLPPPPPPT,0.716 ± 0.017
17,GPVVGGWSVVSK,0.655 ± 0.058
18,LILSSGSPAFKT,0.66 ± 0.039
19,GCCGQGLPWNPP,0.562 ± 0.0077
20,SPPLPSAPPPPR,0.664 ± 0.027
21,CRKLSIPLRGQS,0.6627 ± 0.0044
22,AGAGRLRGGGVN,0.6767 ± 0.0017
23,CVPFFSSSSPLI,0.812 ± 0.037
24,IIRAGVPLSISE,0.652 ± 0.019
25,LPSLTPPPLLLS,0.582 ± 0.0083

row,Sequence,protein stability index
1,WWAERCLGGGRG,0.744 ± 0.018
2,PPPRPCRAPAAA,0.668 ± 0.089
3,SSPVDPLRPPAP,0.704 ± 0.013
4,SFSPSIHLLSTL,0.677 ± 0.045
5,GSLCAVWWCWRG,0.6372 ± 0.0052
6,ELGTDGSQKRAA,0.7045 ± 0.0053
7,GRRRVGAVVEGV,0.641 ± 0.01
8,FESFHLENRGEK,0.706 ± 0.04
9,PPGYGISYLLIE,0.66 ± 0.07
10,PFFLAFPPSPPT,0.723 ± 0.029
11,LIKVGRRREGTG,0.691 ± 0.059
12,PSLPCPVLVFSL,0.462 ± 0.054
13,RNFAPPFLPSPH,0.711 ± 0.066
14,AQSFRGVLLDVT,0.706 ± 0.05
15,NKKKNKKEEHVE,0.688 ± 0.047
16,QTDHINKTTAKI,0.684 ± 0.021
17,GRKKRGRKGEEK,0.631 ± 0.035
18,FCLGWWVAVCGL,0.487 ± 0.04
19,PPPRSPLFSLPP,0.678 ± 0.032
20,QKEGGRENETRT,0.6906 ± 0.0053
21,GLATISARYFCL,0.647 ± 0.064
22,VYFFSSIFRCFV,0.544 ± 0.048
23,SLFASTFFVWPS,0.725 ± 0.014
24,RLLLPSTLLPPR,0.761 ± 0.13
25,VGRGEEAHTPRR,0.678 ± 0.013

row,Sequence,protein stability index
1,QDHIGSTEGYKH,0.663 ± 0.074
2,FQIRGFFGLMAD,0.754 ± 0.046
3,LPGEHSEFNYLL,0.7198 ± 0.0036
4,PPSPELALSLGH,0.673 ± 0.038
5,SGGISGCPPPVF,0.689 ± 0.036
6,ESAARGWSSGVG,0.726 ± 0.079
7,KKRRPKINEIKE,0.643 ± 0.013
8,VSVVGDVWGYGG,0.753 ± 0.068
9,HPPRPPPRSPPP,0.656 ± 0.1
10,CLVGWAVAVLGD,0.458 ± 0.068
11,TRTSRGRTLTTL,0.583 ± 0.016
12,RGLYQCFLLDIV,0.472 ± 0.047
13,RCLSISTSLCKV,0.744 ± 0.052
14,VPVISYVQTSIA,0.558 ± 0.033
15,GRQEISVGGRRM,0.7007 ± 0.00071
16,AAGRSNTEPGDH,0.69 ± 0.057
17,GYLVPLPSSGSS,0.661 ± 0.057
18,SPSPPPTPGSPP,0.718 ± 0.15
19,LGSTPAVKPPCL,0.688 ± 0.019
20,WPLISPFSKHRW,0.696 ± 0.055
21,CTHCAGVLLHTL,0.636 ± 0.044
22,GRLFCAALPLPL,0.666 ± 0.089
23,APHLPGHLTRPP,0.686 ± 0.086
24,LVGQVKYMIKEQ,0.684 ± 0.028
25,GKREGRGRKRGG,0.807 ± 0.092

row,Sequence,protein stability index
1,MGAGGGLCGMWA,0.705 ± 0.054
2,HDHRTLMRQPTR,0.697 ± 0.037
3,FDSGLTTHQRDA,0.686 ± 0.029
4,RFFSGPCCGRSP,0.6995 ± 0.002
5,GRGGWPPWFKHK,0.712 ± 0.033
6,PLPPLAPPHRSP,0.682 ± 0.091
7,HWLGCDESRGWV,0.668 ± 0.037
8,PARRPPPTPSSS,0.631 ± 0.064
9,GFEWWCQSVSVG,0.688 ± 0.018
10,LSLVDCIGFFFC,0.603 ± 0.043
11,PSLSSPQLLLTL,0.685 ± 0.01
12,FCYLCARMPYRS,0.662 ± 0.13
13,LSFPSPSLCRPL,0.694 ± 0.1
14,PSPPPPHPSALT,0.648 ± 0.012
15,VDVSVLVGLNFV,0.797 ± 0.056
16,SVSPRPSPPAVP,0.708 ± 0.13
17,TFSVNLGAASAK,0.662 ± 0.042
18,VVHVGVWGLGRG,0.64819 ± 0.00032
19,TSGAKKISSGTQ,0.707 ± 0.036
20,SLAFGPTAFLPT,0.6818 ± 0.0038
21,AFPSCCFFLSLS,0.662 ± 0.073
22,CCYSSLRLMSFL,0.536 ± 0.014
23,TSTTGLHVSAMS,0.727 ± 0.021
24,SVVVVAKAKAGR,0.635 ± 0.047
25,EATIVGLSYRTL,0.617 ± 0.032

row,Sequence,protein stability index
1,PSILPPPSSCPP,0.767 ± 0.041
2,WGPCCSTLLFFV,0.423 ± 0.12
3,VAVGIEGGWWGV,0.78 ± 0.042
4,WAARPSATGDRC,0.664 ± 0.042
5,VGVCCLSGDGFV,0.6889 ± 0.0048
6,ECPLPPCPPLST,0.68 ± 0.0098
7,WLCLARGRLGLH,0.583 ± 0.011
8,SHALSFSFSLLP,0.6367 ± 0.0052
9,VGASRAGGEVSR,0.651 ± 0.013
10,PPPLPRPFPPFP,0.697 ± 0.019
11,TPTPPRPPFRSP,0.709 ± 0.035
12,PSCRPPLLHPDS,0.721 ± 0.0094
13,VHRMWINARDCV,0.676 ± 0.05
14,RFSDGSHLFGDR,0.524 ± 0.14
15,LGKWWDEECGEI,0.7834 ± 0.0042
16,GERHTGTLRRPD,0.701 ± 0.065
17,FPLSLSFLSPLV,0.705 ± 0.12
18,KKNEKGSKGAEY,0.66 ± 0.03
19,PSLPPLPPAPLL,0.726 ± 0.039
20,RVKRTGLGVWGF,0.649 ± 0.033
21,LFRPGDLVYHSV,0.727 ± 0.026
